The record followed here is article PMC6994640.

In this assay the target is CgIgR (native, oyster hemocytes) (Crassostrea gigas (endogenous in oyster hemocytes)). Description: cross-linking.

One may read the stoichiometry N as the number of molecules, sites or subunits per partner or assembly. For “CgIgR (native, oyster hemocytes) (receptor)”, the stoichiometry N worked out at 2.
